No end group written: not given here.
Biological target: T1, integrin αvβ3 (UniProt P06756 31-1048; P05106 27-788)
T1 construct: Heterodimer immobilized on ProteoChip
Assay: competitive inhibition of integrin αvβ3-vitronectin interaction on protein chip

T1 sequence (P06756 31-1048, chain 1 of 2): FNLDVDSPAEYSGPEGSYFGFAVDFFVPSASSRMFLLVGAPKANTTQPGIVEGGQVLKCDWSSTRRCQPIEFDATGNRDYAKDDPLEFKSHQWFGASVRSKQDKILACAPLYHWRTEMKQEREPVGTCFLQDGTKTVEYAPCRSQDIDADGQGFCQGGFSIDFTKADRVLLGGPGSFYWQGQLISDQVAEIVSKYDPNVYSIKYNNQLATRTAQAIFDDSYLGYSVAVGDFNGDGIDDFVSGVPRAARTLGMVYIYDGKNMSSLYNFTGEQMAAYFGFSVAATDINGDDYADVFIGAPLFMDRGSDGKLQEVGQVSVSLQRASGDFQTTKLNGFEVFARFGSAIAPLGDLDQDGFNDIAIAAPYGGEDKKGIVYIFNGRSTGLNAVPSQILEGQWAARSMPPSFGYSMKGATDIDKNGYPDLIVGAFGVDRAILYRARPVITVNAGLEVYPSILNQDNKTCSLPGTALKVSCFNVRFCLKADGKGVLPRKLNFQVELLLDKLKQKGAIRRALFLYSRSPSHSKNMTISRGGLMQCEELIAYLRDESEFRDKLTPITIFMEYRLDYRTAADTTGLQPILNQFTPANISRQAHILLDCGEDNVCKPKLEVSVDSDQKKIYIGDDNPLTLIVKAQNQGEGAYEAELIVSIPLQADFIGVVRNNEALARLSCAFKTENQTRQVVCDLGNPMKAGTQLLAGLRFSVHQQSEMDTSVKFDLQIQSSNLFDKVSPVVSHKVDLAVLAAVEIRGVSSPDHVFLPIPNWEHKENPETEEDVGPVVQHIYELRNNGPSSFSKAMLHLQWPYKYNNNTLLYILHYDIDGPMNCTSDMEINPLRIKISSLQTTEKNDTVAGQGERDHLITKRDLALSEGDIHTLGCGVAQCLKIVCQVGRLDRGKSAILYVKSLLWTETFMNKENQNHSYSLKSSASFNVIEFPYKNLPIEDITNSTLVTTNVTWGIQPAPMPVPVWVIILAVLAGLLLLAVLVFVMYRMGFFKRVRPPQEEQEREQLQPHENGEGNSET
T1 sequence (P05106 27-788, chain 2 of 2): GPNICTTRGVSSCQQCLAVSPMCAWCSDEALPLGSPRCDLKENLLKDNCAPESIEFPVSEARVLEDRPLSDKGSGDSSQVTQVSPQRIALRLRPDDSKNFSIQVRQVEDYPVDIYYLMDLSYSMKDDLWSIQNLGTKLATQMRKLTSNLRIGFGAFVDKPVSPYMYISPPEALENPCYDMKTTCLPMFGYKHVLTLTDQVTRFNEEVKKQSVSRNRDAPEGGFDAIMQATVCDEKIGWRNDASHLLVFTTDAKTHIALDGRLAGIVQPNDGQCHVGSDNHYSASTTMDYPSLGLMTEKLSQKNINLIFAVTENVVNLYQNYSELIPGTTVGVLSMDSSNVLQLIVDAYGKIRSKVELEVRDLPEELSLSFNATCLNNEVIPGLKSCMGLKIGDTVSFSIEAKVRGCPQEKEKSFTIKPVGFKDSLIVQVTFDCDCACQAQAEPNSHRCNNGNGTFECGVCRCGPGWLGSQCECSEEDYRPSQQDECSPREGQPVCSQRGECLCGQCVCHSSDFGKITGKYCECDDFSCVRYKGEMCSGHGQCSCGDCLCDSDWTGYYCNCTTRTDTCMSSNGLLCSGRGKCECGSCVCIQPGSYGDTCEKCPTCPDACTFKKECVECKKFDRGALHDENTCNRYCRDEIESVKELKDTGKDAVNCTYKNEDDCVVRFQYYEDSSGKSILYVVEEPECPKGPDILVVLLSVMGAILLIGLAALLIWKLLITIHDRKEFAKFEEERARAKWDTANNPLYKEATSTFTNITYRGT

B1: HGLVHK-NH2 (peptide)
peptide: HGLVHK-NH2
notes: also called HGLVHK peptide; peptide number 7
  IC50: 0.00243 ng/mL

B2: HGDVHK-NH2 (peptide)
peptide: HGDVHK-NH2
notes: also called HGDVHK peptide; peptide number 10
  IC50: 0.0447 ng/mL

B3: HSLVHK-NH2 (peptide)
peptide: HSLVHK-NH2
notes: also called peptide number 8
  IC50: 0.046 ng/mL

B4: HSDVHK-NH2 (peptide)
peptide: HSDVHK-NH2
notes: also called HSDVHK peptide; peptide number 11
  IC50: 0.00174 ng/mL

B5: HHLLHK-NH2 (peptide)
peptide: HHLLHK-NH2
notes: also called HHLLHK peptide; peptide number 3
  IC50: 0.0034 ng/mL

B6: HGDLHK-NH2 (peptide)
peptide: HGDLHK-NH2
notes: also called HGDLHK peptide; peptide number 4
  IC50: 0.0307 ng/mL

B7: HHLVHK-NH2 (peptide)
peptide: HHLVHK-NH2
notes: also called peptide number 9
  IC50: 0.313 ng/mL
